Like-named read-outs stand apart in the source and are kept apart here.
Assays:
J08 C.97ZA012V1V2 = target: T1, J08 C.97ZA012V1V2 (HIV-1); assay: ELISA, mAb 0.001-100 ug/ml on coated V1V2 scaffold, OD450
T1 chain: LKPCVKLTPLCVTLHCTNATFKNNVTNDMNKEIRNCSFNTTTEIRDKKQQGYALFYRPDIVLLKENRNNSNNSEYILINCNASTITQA

gp70 B.HXB2/BALV1V2 = target: T2, gp70 B.HXB2/BALV1V2 (murine leukemia virus; HIV-1); assay: as above
T2 chain: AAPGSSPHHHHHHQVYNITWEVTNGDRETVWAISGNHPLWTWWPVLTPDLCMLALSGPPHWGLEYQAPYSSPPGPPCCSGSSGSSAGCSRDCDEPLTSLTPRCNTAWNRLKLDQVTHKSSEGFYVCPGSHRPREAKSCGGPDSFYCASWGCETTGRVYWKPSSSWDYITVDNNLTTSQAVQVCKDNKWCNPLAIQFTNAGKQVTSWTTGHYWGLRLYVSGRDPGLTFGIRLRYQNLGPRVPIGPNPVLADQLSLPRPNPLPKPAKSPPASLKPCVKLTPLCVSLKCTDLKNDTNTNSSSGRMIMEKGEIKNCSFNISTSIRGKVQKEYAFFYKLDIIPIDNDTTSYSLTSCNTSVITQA

[1] = target: T3, J08 B.HXB2/BALV1V2N156QN160Q (HIV-1); assay: as above
T3 chain: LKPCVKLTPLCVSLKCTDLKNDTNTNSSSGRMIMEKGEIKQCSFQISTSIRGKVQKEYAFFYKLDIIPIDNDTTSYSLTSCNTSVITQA

gp70 A.92RW020V1V2 = gp70 A.92RW020V1V2 (murine leukemia virus; HIV-1); assay: as above
B.con gp140CF [2] = target: T4, B.con gp140CF; assay: ELISA, OD405
T4 construct: also called B.con.env03 gp140CF

B. 681-7 gp140C [3] = assay: ELISA, OD405
D.9009SA V1V2 Tags [4] = target: T5, D.9009SA V1V2 Tags; assay: ELISA, OD405
T5 Env construct: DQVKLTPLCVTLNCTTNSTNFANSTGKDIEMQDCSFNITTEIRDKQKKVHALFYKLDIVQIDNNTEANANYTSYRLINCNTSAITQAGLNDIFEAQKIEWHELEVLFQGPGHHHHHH

B.040 gp140C [5] = assay: ELISA, OD405
A.9004SS V1V2 Tags [6] = target: T6, A.9004SS V1V2 Tags; assay: ELISA, OD405
T6 Env construct: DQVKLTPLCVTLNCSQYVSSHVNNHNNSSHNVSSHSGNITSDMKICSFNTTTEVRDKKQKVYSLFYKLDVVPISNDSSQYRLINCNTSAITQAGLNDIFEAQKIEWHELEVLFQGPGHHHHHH

B.62357 140C [7] = target: T7, B.62357 140C; assay: ELISA, OD405
T7 construct: also called B.62357 gp140C

B.con gp140CF [8] = target: T4, B.con gp140CF; assay: ELISA, OD405; remark: listed apart in the source
B. 681-7 gp140C [9] = assay: ELISA, OD405; remark: listed apart in the source
D.9009SA V1V2 Tags [10] = target: T5, D.9009SA V1V2 Tags; assay: ELISA, OD405
Con 6 gp120 [11] = assay: ELISA, OD405
B.Case A2 V1/V2 Tags = target: T8, B.Case A2 V1/V2 Tags; assay: ELISA, OD405
T8 Env construct: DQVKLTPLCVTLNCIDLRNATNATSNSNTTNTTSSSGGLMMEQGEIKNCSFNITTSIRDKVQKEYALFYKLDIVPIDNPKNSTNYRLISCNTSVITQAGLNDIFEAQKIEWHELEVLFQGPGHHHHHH

A.9004SS V1V2 Tags [12] = target: T6, A.9004SS V1V2 Tags; assay: ELISA, OD405
G.con gp140CF [13] = target: T9, G.con gp140CF; assay: ELISA, OD405
T9 construct: also called G.con.env03 gp140CF

AE.con gp140CF [14] = target: T10, AE.con gp140CF; assay: ELISA, OD405
T10 construct: also called AE.con.env03 gp140CF

B.62357 140C [15] = target: T7, B.62357 140C; assay: ELISA, OD405; remark: listed apart in the source
A.9004SS V1/V2 tags = target: T11, A.9004SS V1/V2 tags; assay: ELISA, OD405 at 10 ug/ml
T11 V1V2 tags construct: T6 Env construct

AE.con gp140CF [16] = assay: ELISA, OD405 at 10 ug/ml
C.1086 gp140 = target: T12, C.1086 gp140; assay: ELISA, OD405 at 10 ug/ml
T12 construct: also called C.1086gp140C

Con 6 gp120 [17] = assay: ELISA, OD405 at 10 ug/ml
B.040 gp140C [18] = assay: ELISA, OD405 at 10 ug/ml
D.9009SA V1/V2 tags = assay: ELISA, OD405 at 10 ug/ml
B.62357 gp140C = target: T13, B.62357 gp140C; assay: ELISA, OD405 at 10 ug/ml
T13 construct: also called B.62357 140C

G.con gp140CF [19] = assay: ELISA, OD405 at 10 ug/ml
B.63521_V1/V2 tags = assay: ELISA, OD405 at 10 ug/ml
AE.A244 gD+ gp120 N160K = target: T14, AE.A244 gD+ gp120 N160K (HIV-1); assay: ELISA
T14 construct: domain: gp120

B1: PG16 (antibody, V domains shown)
VH: QEQLVESGGGVVQPGGSLRLSCLASGFTFHKYGMHWVRQAPGKGLEWVALISDDGMRKYHSDSMWGRVTISRDNSKNTLYLQFSSLKVEDTAMFFCAREAGGPIWHDDVKYYDFNDGYYNYHYMDVWGKGTTVTVSS
VL: QSALTQPASVSGSPGQTITISCNGTSSDVGGFDSVSWYQQSPGKAPKVMVFDVSHRPSGISNRFSGSKSGNTASLTISGLHIEDEGDYFCSSLTDRSHRIFGGGTKVTVL
notes: also called mAb PG16; bnAb PG16
binding result (J08 C.97ZA012V1V2): no binding (tested: 100 ug/ml)
binding result (gp70 B.HXB2/BALV1V2): no binding (tested: 100 ug/ml)
binding result [1]: no binding (tested: 100 ug/ml)
binding result (gp70 A.92RW020V1V2): no binding (tested: 100 ug/ml)
binding result (B.con gp140CF [2]): no binding (tested: 10 ug/ml)
binding result (B. 681-7 gp140C [3]): no binding (tested: 10 ug/ml)
binding result (D.9009SA V1V2 Tags [4]): no binding (tested: 10 ug/ml)
binding result (B.040 gp140C [5]): no binding (tested: 10 ug/ml)
binding result (A.9004SS V1V2 Tags [6]): no binding (tested: 10 ug/ml)
binding result (B.62357 140C [7]): no binding (tested: 10 ug/ml)

B2: PG16 reverted unmutated ancestor antibody (antibody, V domains shown)
VH: QVQLVESGGGVVQPGRSLRLSCAASGFTFSSYGMHWVRQAPGKGLEWVAVISYDGSNKYYADSVKGRFTISRDNSKNTLYLQMNSLRAEDTAVYYCAREAGGPIWHDDVKYYDFNDGYYYYYYMDVWGKGTTVTVSS
VL: QSALTQPASVSGSPGQSITISCTGTSSDVGSYNLVSWYQQHPGKAPKLMIYEVSKRPSGVSNRFSGSKSGNTASLTISGLQAEDEADYYCCSLTDRSHRIFGGGTKLTVL
notes: also called PG16 RUA; PG16_RUA
binding result (B.con gp140CF [8]): no binding (tested: 10 ug/ml)
binding result (B. 681-7 gp140C [9]): no binding (tested: 10 ug/ml)
binding result (D.9009SA V1V2 Tags [10]): no binding (tested: 10 ug/ml)
binding result (Con 6 gp120 [11]): no binding (tested: 10 ug/ml)
binding result (B.Case A2 V1/V2 Tags): no binding (tested: 10 ug/ml)
binding result (A.9004SS V1V2 Tags [12]): no binding (tested: 10 ug/ml)
binding result (G.con gp140CF [13]): no binding (tested: 10 ug/ml)
binding result (AE.con gp140CF [14]): no binding (tested: 10 ug/ml)
binding result (B.62357 140C [15]): no binding (tested: 10 ug/ml)

B3: CH59 (antibody, V domains shown)
VH: EVQLVESGGGLVQPGRSLRLSCAASGFTFDDGAMHWVRQAPGKGLEWVSGISWNSNIIAYADSVKGRFTISRDNAKNSLYLEMNSLRVEDTALYYCAKDSPRGELPLNYWGQGTLVTVSS
VL: SYELTQPPSVSVSPGQTARITCSGDALPKNYAYWYQQKSGQAPVLVIYEDSKRPSGIPERFSGSSSGTMATLTISGAQVEDEADYYCYSTDSSGNHRVFGGGTKLTVL
notes: also called mAb CH59
binding result (A.9004SS V1/V2 tags): binds
binding result (AE.con gp140CF [16]): binds
binding result (C.1086 gp140): binds
binding result (Con 6 gp120 [17]): no binding (tested: 10 ug/ml)
binding result (B.040 gp140C [18]): no binding (tested: 10 ug/ml)
binding result (D.9009SA V1/V2 tags): binds
binding result (B.62357 gp140C): no binding (tested: 10 ug/ml)
binding result (G.con gp140CF [19]): no binding (tested: 10 ug/ml)
binding result (B.63521_V1/V2 tags): no binding (tested: 10 ug/ml)
EC50 (AE.A244 gD+ gp120 N160K): 0.03 nM

— US9988424 (DUKE UNIVERSITY, dated 2018)
